According to patent US20220031745A1:

Legend:
Experiment in all cases: quantitative flow cytometry, anti-myc staining of CD8+ T cells; ABC = number of receptors/cell; UnT T cells read ~350
[1] = target: low affinity anti-Her2 CAR (4D5 variant LOW scFv, CD8 transmembrane, 41BB, CD3zeta) (UniProt P01732)
[2] = target: low affinity anti-Her2 SynNotch receptor (4D5 variant LOW scFv, mouse Notch1 minimal regulatory region, Gal4 DBD VP64) (mouse) (UniProt Q01705)
[3] = target: high affinity anti-Her2 CAR (4D5 variant HIGH scFv, CD8 transmembrane, 41BB, CD3zeta) (UniProt P01732)

ABC (antibody binding capacity) [1]: 7600
ABC (antibody binding capacity) [2]: 2550
ABC (antibody binding capacity) [3]: 19000
Substance: Anti-myc Alexa-647 (antibody)
